# According to paper PMC11222974, “The effect of ADAMTS13 on graft‐versus‐host disease” (Journal of Cellular and Molecular Medicine, 2024):
# How the values were obtained:
# integrin αL chain = integrin αL chain (UniProt P20701); experiment: SPR; Biacore 3000, 25°C; integrin αL amine-coupled to CM5 (~500 RU), soluble VWF or VWF-A2 flowed over at 30 μL/min in TBSTG (25 mM Tris pH 7.5, 150 mM NaCl, 0.05% Tween, 2% glycerol); apparent
# [1] = biological target: T1, factor VIII‐free Von Willebrand factor (human, UniProt P04275 764-2813); experiment: SPR; Biacore 3000, 25°C; factor VIII-free VWF amine-coupled to CM5 (~3000 RU after TCEP), αL flowed over at 30 μL/min in TBSTG (25 mM Tris pH 7.5, 150 mM NaCl, 0.05% Tween, 2% glycerol); two-state binding model; apparent; conditions: both partners purified
# T1 construct: Von Willebrand factor, human, factor VIII-free; multimeric; molar concentration counted with a monomeric MW of 260 kDa; Multimeric protein; On the SPR chip it was treated with 10 mM TCEP after coupling; also called VWF; recombinant human factor VIII‐free VWF; source: bought: Haematologic Technologies / Prolytix, catalogue HCVWF‐0191
Kd (integrin αL chain) [nM],ka1 (integrin αL chain) [M⁻¹ s⁻¹],kd1 (integrin αL chain) [s⁻¹],Kd [1] [nM],Molecule
94,140000,0.013,,recombinant VWF‐A2 protein (domain or fragment)
,,,120,"integrin αL chain (receptor, UniProt P20701 26-1090, looked up, integrin αL chain (CD11a), recombinant, Origene TP321297; αL chain alone, without β2, in the SPR experiments; In the functional rows this molecule stands for αLβ2 on Jurkat cells; also called aL; CD11a; source: bought: Origene, catalogue TP321297) YNLDVRGARSFSPPRAGRHFGYRVLQVGNGVIVGAPGEGNSTGSLYQCQSGTGHCLPVTLRGSNYTSKYLGMTLATDPTDGSILACDPGLSRTCDQNTYLSGLCYLFRQNLQGPMLQGRPGFQECIKGNVDLVFLFDGSMSLQPDEFQKILDFMKDVMKKLSNTSYQFAAVQFSTSYKTEFDFSDYVKRKDPDALLKHVKHMLLLTNTFGAINYVATEVFREELGARPDATKVLIIITDGEATDSGNIDAAKDIIRYIIGIGKHFQTKESQETLHKFASKPASEFVKILDTFEKLKDLFTELQKKIYVIEGTSKQDLTSFNMELSSSGISADLSRGHAVVGAVGAKDWAGGFLDLKADLQDDTFIGNEPLTPEVRAGYLGYTVTWLPSRQKTSLLASGAPRYQHMGRVLLFQEPQGGGHWSQVQTIHGTQIGSYFGGELCGVDVDQDGETELLLIGAPLFYGEQRGGRVFIYQRRQLGFEEVSELQGDPGYPLGRFGEAITALTDINGDGLVDVAVGAPLEEQGAVYIFNGRHGGLSPQPSQRIEGTQVLSGIQWFGRSIHGVKDLEGDGLADVAVGAESQMIVLSSRPVVDMVTLMSFSPAEIPVHEVECSYSTSNKMKEGVNITICFQIKSLIPQFQGRLVANLTYTLQLDGHRTRRRGLFPGGRHELRRNIAVTTSMSCTDFSFHFPVCVQDLISPINVSLNFSLWEEEGTPRDQRAQGKDIPPILRPSLHSETWEIPFEKNCGEDKKCEANLRVSFSPARSRALRLTAFASLSVELSLSNLEEDAYWVQLDLHFPPGLSFRKVEMLKPHSQIPVSCEELPEESRLLSRALSCNVSSPIFKAGHSVALQMMFNTLVNSSWGDSVELHANVTCNNEDSDLLEDNSATTIIPILYPINILIQDQEDSTLYVSFTPKGPKIHQVKHMYQVRIQPSIHDHNIPTLEAVVGVPQPPSEGPITHQWSVQMEPPVPCHYEDLERLPDAAEPCLPGALFRCPVVFRQEILVQVIGTLELVGEIEASSMFSLCSSLSISFNSSKHFHLYGSNASLAQVVMKVDVVYEKQML"
